Measurements reported in patent publication US20170058319A1, “NANOSENSOR FOR ASSESSING THROMBIN INHIBITORS” (VIRGINIA COMMONWEALTH UNIVERSITY, priority 2014, published 2017).

Tests used:
[1] = molecular target: Au-TH nanoprobe (gold nanoparticles covalently linked to bovine α-thrombin) (bovine) (UniProt P00735); assay: cell-based or functional assay
[2] = molecular target: Au-TH nanoprobe (gold nanoparticles covalently linked to bovine α-thrombin) (bovine) (UniProt P00735); assay: displacement of HirP from the Au-TH nanoprobe by AT at 100 µM, 1 h incubation
[3] = molecular target: Au-TH nanoprobe (gold nanoparticles covalently linked to bovine α-thrombin) (bovine) (UniProt P00735); assay: displacement of HirP from the Au-TH nanoprobe by AT at 10 µM, 1 h incubation
[4] = molecular target: Au-TH nanoprobe (gold nanoparticles covalently linked to bovine α-thrombin) (bovine) (UniProt P00735); assay: displacement of HirP from the Au-TH nanoprobe by AT at 1 µM, 1 h incubation

Antithrombin (AT), sequence (P01008 33-464): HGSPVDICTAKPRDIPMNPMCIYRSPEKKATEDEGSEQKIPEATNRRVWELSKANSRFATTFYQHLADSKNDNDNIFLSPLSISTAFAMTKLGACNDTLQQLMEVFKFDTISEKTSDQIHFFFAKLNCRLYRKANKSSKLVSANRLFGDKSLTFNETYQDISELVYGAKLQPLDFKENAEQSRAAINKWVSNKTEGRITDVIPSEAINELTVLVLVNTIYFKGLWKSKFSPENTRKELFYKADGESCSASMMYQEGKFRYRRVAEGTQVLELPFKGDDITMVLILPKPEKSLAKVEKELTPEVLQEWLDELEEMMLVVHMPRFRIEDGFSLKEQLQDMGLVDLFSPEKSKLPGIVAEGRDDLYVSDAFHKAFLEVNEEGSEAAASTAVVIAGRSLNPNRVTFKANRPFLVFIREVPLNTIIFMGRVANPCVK

Antithrombin (AT)
neutralization of surface bound thrombin (chromogenic substrate hydrolysis) [1]: < 60% | increase in fluorescence at 525 nm [2]: 20% | increase in fluorescence at 525 nm [3]: 25% | increase in fluorescence at 525 nm [4]: 40%
